From publication PMC10558642 (2023) come the findings set out here.

In general, Kd refers to the free concentration of one partner at which half of the binding sites on the other are occupied at equilibrium, for simple one-to-one binding.

B1: recombinant GPX4 protein (SPR and MST) (natural protein)
chain: MSLGRLCRLLKPALLCGALAAPGLAGTMCASRDDWRCARSMHEFSAKDIDGHMVNLDKYRGFVCIVTNVASQUGKTEVNYTQLVDLHARYAECGLRILAFPCNQFGKQEPGSNEEIKEFAAGYNVKFDMFSKICVNGDDAHPLWKWMKIQPKGKGILGNAIKWNFTKFLIDKNGCVVKRYGPMEEPLVIEKDLPHYF
B2: His-OTUD5 (natural protein)
chain: MTILPKKKPPPPDADPANEPPPPGPMPPAPRRGGGVGVGGGGTGVGGGDRDRDSGVVGARPRASPPPQGPLPGPPGALHRWALAVPPGAVAGPRPQQASPPPCGGPGGPGGGPGDALGAAAAGVGAAGVVVGVGGAVGVGGCCSGPGHSKRRRQAPGVGAVGGGSPEREEVGAGYNSEDEYEAAAARIEAMDPATVEQQEHWFEKALRDKKGFIIKQMKEDGACLFRAVADQVYGDQDMHEVVRKHCMDYLMKNADYFSNYVTEDFTTYINRKRKNNCHGNHIEMQAMAEMYNRPVEVYQYSTGTSAVEPINTFHGIHQNEDEPIRVSYHRNIHYNSVVNPNKATIGVGLGLPSFKPGFAEQSLMKNAIKTSEESWIEQQMLEDKKRATDWEATNEAIEEQVARESYLQWLRDQEKQARQVRGPSQPRKASATCSSATAAASSGLEEWTSRSPRQRSSASSPEHPELHAELGMKPPSPGTVLALAKPPSPCAPGTSSQFSAGADRATSPLVSLYPALECRALIQQMSPSAFGLNDWDDDEILASVLAVSQQEYLDSMKKNKVHRDPPPDKS
modifications: Red-tris-NTA dye on the His tag (MST only)

The assay “His-OTUD5” concerns the target B2. Kind of assay: MST.
Assay [1] concerns the target B1. Kind of assay: SPR. For orientation: In SPR one partner is held on a chip, and binding of the other changes the refractive index at the surface.

In the assay with His-OTUD5, B1 returned a dissociation constant Kd of 230 nM.
In the case of B2, the Kd in assay [1] was 720 nM.
